The values that follow come from paper PMC4323659 (Scientific Reports, 2015).

For series [1], the target named is T1, VmoLac (Vulcanisaeta moutnovskia, UniProt F0QXN6).
T1 construct: gene VMUT_2255; full length, 315 residues; Strep tag removed by TEV protease; E. coli BL21(DE3)-pGro7/GroEL; homodimer; bi-cobalt enzyme
It counts as biochemical.

Series [2] deals with T1, VmoLac. It counts as binding.
Series [3] deals with CCCCC1CCCC(=O)O1. The experiment in a line: purified protein. To be noted: pH 8.3; 25.0 °C.
Series [4] concerns CCCCCCCC(=O)NC1CCOC1=O. The experiment in a line: purified protein. The note with it: pH 8.3; 25.0 °C.
Series [5] has as its system CCCCCC(=O)CC(=O)N[C@H]1CCOC1=O. The experiment in a line: purified protein. The note with it: pH 8.3; 25.0 °C.
Series [6] relates to CCCCCCCCC1CCC(=O)O1. The experiment in a line: purified protein. The note with it: pH 8.3; 25.0 °C.
Series [7] relates to CCCCCC1CCC(=O)O1. The series can be described thus: purified protein. To be noted: pH 8.3; 25.0 °C.
Series [8] relates to CCC1CCC(=O)O1. The series can be described thus: purified protein. The note with it: pH 8.3; 25.0 °C.
Series [9] deals with CCCCCCC1CCCC(=O)O1. The experiment in a line: purified protein. To be noted: pH 8.3; 25.0 °C.
Series [10] relates to CCCCCCCC1CCCC(=O)O1. The series can be described thus: purified protein. The note with it: pH 8.3; 25.0 °C.
In series [11] the test system is CCCCCCCC(=O)CC(=O)N[C@H]1CCOC1=O. The series can be described thus: purified protein. To be noted: pH 8.3; 25.0 °C.
Series [12] deals with CCCC1CCC(=O)O1. The experiment in a line: purified protein. The note with it: pH 8.3; 25.0 °C.

For `CCOP(=O)(OCC)Oc1ccc([N+](=O)[O-])cc1` [I, ethyl-paraoxon], the Km (commonly the substrate concentration at which the rate is half of its maximum) in [1] (HEPES 50 mM pH 8, NaCl 150 mM, CoCl2 0.2 mM, 25°C) amounted to 581 ± 61 µM.
Turning to `CC(=O)Oc1ccc([N+](=O)[O-])cc1` [VIII, pNP-Acetate], the “KM (μM)” value in series [1] was 4 471 ± 593 μM.
As for `CCCCCCCC(=O)CC(=O)N[C@H]1CCOC1=O` [XVI, 3-oxo C10 AHL], the “X-ray crystal structure, soaked crystal, 2.0 Å” value in [2] is “Crystals of VmoLac were soaked with 3-oxo-C10 AHL, and the lactone sits”.
As to “VmoLac (Vulcanisaeta moutnovskia 768-28)”, the Km in series [3] turned out to be 1220 ± 59 µM; in [4], 262 ± 54 µM; in series [5], 186 ± 37 µM; in series [7] it was 47 ± 11 µM; in [8], 3709 ± 497 µM; in series [9] it was 105 ± 24 µM. Also, the Km in series [11] worked out at 231 ± 55 µM; in series [12], 872 ± 220 µM. Also, the kcat/Km (commonly the second-order rate constant that governs catalysis at low substrate concentration) in series [3] amounted to 72900 ± 3700 M⁻¹ s⁻¹; in series [4], 2230 ± 480 M⁻¹ s⁻¹; in series [5] it was 1880 ± 380 M⁻¹ s⁻¹; in series [6], 77700 ± 24000 M⁻¹ s⁻¹; in series [7], 948000 ± 218000 M⁻¹ s⁻¹; in series [8] it was 30300 ± 4600 M⁻¹ s⁻¹. Besides, the kcat/Km in series [9] turned out to be 580000 ± 132000 M⁻¹ s⁻¹; in [11], 2050 ± 500 M⁻¹ s⁻¹; in series [12], 31200 ± 8600 M⁻¹ s⁻¹. Also, the values for the K0.5 in series [6] and in series [10] were 2.1 ± 0.6 µM and 839 ± 13 µM, respectively.
